Reference: patent US20080318246A1, “Deeply quenched enzyme sensors” (The Albert Einstein College of Medicine of Yeshiva …, priority 2007, published 2008)

Columns and labels:
[1] = biological target: cAMP-dependent protein kinase (PKA), murine catalytic subunit (murine) (UniProt P05132); experiment: cell-based or functional assay
14-3-3τ = 14-3-3τ (UniProt P27348); experiment: cell-based or functional assay
Chain of 14-3-3τ (P27348 whole entry): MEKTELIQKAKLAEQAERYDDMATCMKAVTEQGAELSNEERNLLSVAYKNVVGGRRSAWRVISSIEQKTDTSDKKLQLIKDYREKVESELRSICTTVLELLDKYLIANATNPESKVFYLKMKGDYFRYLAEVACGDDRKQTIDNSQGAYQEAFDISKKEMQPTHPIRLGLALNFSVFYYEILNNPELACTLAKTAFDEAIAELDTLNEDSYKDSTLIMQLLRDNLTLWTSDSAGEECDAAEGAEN

Substance: PKI (14-22) peptide
- IC50 of PKA activity (Deep Quench assay, P2/Ponceau S, 1 mM ATP) [1]: 1.1 µM
- IC50 of PKA activity (standard radioactive ATP method) [1]: 1.6 µM

Substance: P3, Ac-GRTDap(Pyr)RRFSYP-amide, serine-phosphorylated by PKA in the assay (peptide)
- % Fluorescence Enhancement on phosphorylation, no quenching dye (14-3-3τ): 19%
- PKA-induced fluorescence change; Alizarin Red 5x (14-3-3τ): 1.28 fold
- PKA-induced fluorescence change; Alizarin Red 10x (14-3-3τ): 1.21 fold
- PKA-induced fluorescence change; Alizarin Red 25x (14-3-3τ): 1.17 fold
- PKA-induced fluorescence change; Alizarin Red 50x (14-3-3τ): 1.05 fold
- PKA-induced fluorescence change; Aniline Blue WS 5x (14-3-3τ): 1.5 fold
- PKA-induced fluorescence change; Aniline Blue WS 10x (14-3-3τ): 2.17 fold
- PKA-induced fluorescence change; Aniline Blue WS 25x (14-3-3τ): 3.79 fold
- PKA-induced fluorescence change; Aniline Blue WS 50x (14-3-3τ): 0.99 fold
- PKA-induced fluorescence change; Chlorazol Black E 5x (14-3-3τ): 1.79 fold
- PKA-induced fluorescence change; Chlorazol Black E 10x (14-3-3τ): 0.71 fold
- PKA-induced fluorescence change; Chlorazol Black E 25x (14-3-3τ): 0.92 fold
- PKA-induced fluorescence change; Chlorazol Black E 50x (14-3-3τ): 0.25 fold
- PKA-induced fluorescence change; Eriochrome Black T 5x (14-3-3τ): 1.1 fold
- PKA-induced fluorescence change; Eriochrome Black T 10x (14-3-3τ): 1.02 fold
- PKA-induced fluorescence change; Eriochrome Black T 25x (14-3-3τ): 0.58 fold
- PKA-induced fluorescence change; Eriochrome Black T 50x (14-3-3τ): 0.31 fold
- PKA-induced fluorescence change; Evans Blue 5x (14-3-3τ): 1.1 fold
- PKA-induced fluorescence change; Evans Blue 10x (14-3-3τ): 1.06 fold
- PKA-induced fluorescence change; Evans Blue 25x (14-3-3τ): 1.06 fold
- PKA-induced fluorescence change; Evans Blue 50x (14-3-3τ): 0.99 fold
- PKA-induced fluorescence change; Ponceau S 5x (14-3-3τ): 1.81 fold
- PKA-induced fluorescence change; Ponceau S 10x (14-3-3τ): 2.26 fold
- PKA-induced fluorescence change; Ponceau S 25x (14-3-3τ): 2.75 fold
- PKA-induced fluorescence change; Ponceau S 50x (14-3-3τ): 2.88 fold
- PKA-induced fluorescence change; Reactive Blue 2 5x (14-3-3τ): 1.48 fold
- PKA-induced fluorescence change; Reactive Blue 2 10x (14-3-3τ): 2.29 fold
- PKA-induced fluorescence change; Reactive Blue 2 25x (14-3-3τ): 3.56 fold
- PKA-induced fluorescence change; Reactive Blue 2 50x (14-3-3τ): 1.68 fold
- PKA-induced fluorescence change; Rose Bengal 5x (14-3-3τ): 2.7 fold
- PKA-induced fluorescence change; Rose Bengal 10x (14-3-3τ): 1.98 fold
- PKA-induced fluorescence change; Rose Bengal 25x (14-3-3τ): 1.13 fold
- PKA-induced fluorescence change; Rose Bengal 50x (14-3-3τ): 0.97 fold
- PKA-induced fluorescence change; Tartrazine 5x (14-3-3τ): 1.19 fold
- PKA-induced fluorescence change; Tartrazine 10x (14-3-3τ): 1.34 fold
- PKA-induced fluorescence change; Tartrazine 25x (14-3-3τ): 1.47 fold
- PKA-induced fluorescence change; Tartrazine 50x (14-3-3τ): 1.02 fold
- PKA-induced fluorescence change; Trypan Blue 5x (14-3-3τ): 2.23 fold
- PKA-induced fluorescence change; Trypan Blue 10x (14-3-3τ): 2.72 fold
- PKA-induced fluorescence change; Trypan Blue 25x (14-3-3τ): 1.91 fold
- PKA-induced fluorescence change; Trypan Blue 50x (14-3-3τ): 1.6 fold

Substance: P2, Ac-GRTGRRDap(Pyr)SYP-amide, serine-phosphorylated by PKA in the assay (peptide)
- % Fluorescence Enhancement on phosphorylation, no quenching dye (14-3-3τ): 51%
- PKA-induced fluorescence change; Alizarin Red 5x (14-3-3τ): 1.59 fold
- PKA-induced fluorescence change; Alizarin Red 10x (14-3-3τ): 1.38 fold
- PKA-induced fluorescence change; Alizarin Red 25x (14-3-3τ): 1.37 fold
- PKA-induced fluorescence change; Alizarin Red 50x (14-3-3τ): 1.3 fold
- PKA-induced fluorescence change; Aniline Blue WS 5x (14-3-3τ): 1.85 fold
- PKA-induced fluorescence change; Aniline Blue WS 10x (14-3-3τ): 2.48 fold
- PKA-induced fluorescence change; Aniline Blue WS 25x (14-3-3τ): 2.52 fold
- PKA-induced fluorescence change; Aniline Blue WS 50x (14-3-3τ): 1.83 fold
- PKA-induced fluorescence change; Chlorazol Black E 5x (14-3-3τ): 2.26 fold
- PKA-induced fluorescence change; Chlorazol Black E 10x (14-3-3τ): 2.84 fold
- PKA-induced fluorescence change; Chlorazol Black E 25x (14-3-3τ): 0.6 fold
- PKA-induced fluorescence change; Chlorazol Black E 50x (14-3-3τ): 0.35 fold
- PKA-induced fluorescence change; Eriochrome Black T 5x (14-3-3τ): 1.46 fold
- PKA-induced fluorescence change; Eriochrome Black T 10x (14-3-3τ): 1.42 fold
- PKA-induced fluorescence change; Eriochrome Black T 25x (14-3-3τ): 1.13 fold
- PKA-induced fluorescence change; Eriochrome Black T 50x (14-3-3τ): 3.71 fold
- PKA-induced fluorescence change; Evans Blue 5x (14-3-3τ): 1.92 fold
- PKA-induced fluorescence change; Evans Blue 10x (14-3-3τ): 1.37 fold
- PKA-induced fluorescence change; Evans Blue 25x (14-3-3τ): 1.01 fold
- PKA-induced fluorescence change; Evans Blue 50x (14-3-3τ): 0.94 fold
- PKA-induced fluorescence change; Ponceau S 5x (14-3-3τ): 1.93 fold
- PKA-induced fluorescence change; Ponceau S 10x (14-3-3τ): 1.92 fold
- PKA-induced fluorescence change; Ponceau S 25x (14-3-3τ): 4.61 fold
- PKA-induced fluorescence change; Ponceau S 50x (14-3-3τ): 6.57 fold
- PKA-induced fluorescence change; Reactive Blue 2 5x (14-3-3τ): 1.99 fold
- PKA-induced fluorescence change; Reactive Blue 2 10x (14-3-3τ): 2.08 fold
- PKA-induced fluorescence change; Reactive Blue 2 25x (14-3-3τ): 5.66 fold
- PKA-induced fluorescence change; Reactive Blue 2 50x (14-3-3τ): 6.3 fold
- PKA-induced fluorescence change; Rose Bengal 5x (14-3-3τ): 2.58 fold
- PKA-induced fluorescence change; Rose Bengal 10x (14-3-3τ): 2.87 fold
- PKA-induced fluorescence change; Rose Bengal 25x (14-3-3τ): 1.58 fold
- PKA-induced fluorescence change; Rose Bengal 50x (14-3-3τ): 0.72 fold
- PKA-induced fluorescence change; Tartrazine 5x (14-3-3τ): 1.41 fold
- PKA-induced fluorescence change; Tartrazine 10x (14-3-3τ): 1.61 fold
- PKA-induced fluorescence change; Tartrazine 25x (14-3-3τ): 1.82 fold
- PKA-induced fluorescence change; Tartrazine 50x (14-3-3τ): 2.51 fold
- PKA-induced fluorescence change; Trypan Blue 5x (14-3-3τ): 2.2 fold
- PKA-induced fluorescence change; Trypan Blue 10x (14-3-3τ): 2.81 fold
- PKA-induced fluorescence change; Trypan Blue 25x (14-3-3τ): 5.11 fold
- PKA-induced fluorescence change; Trypan Blue 50x (14-3-3τ): 6.03 fold
- Phosphorylation-induced fluorescence fold-change; P2/Ponceau S (1:50), plate reader - bottom read (14-3-3τ): 7 fold
- Phosphorylation-induced fluorescence fold-change; P2/Ponceau S (1:50), plate reader - top read (14-3-3τ): 15 fold
- Phosphorylation-induced fluorescence fold-change; P2/Ponceau S (1:50), spectrofluorimeter (14-3-3τ): 21 fold
